Experimental findings from PMC6264593 (2018) are described below.

One assay addresses Aβ monomer (Homo sapiens, UniProt P05067). Description: SPR. (SPR reads the build-up and loss of mass on a sensor chip optically.)
The next assay concerns the target Aβ protofibrils (Homo sapiens, UniProt P05067). The assay is described as follows: SPR.

B1: Gantenerumab (antibody, V domains shown)
VH: QVELVESGGGLVQPGGSLRLSCAASGFTFSSYAMSWVRQAPGKGLEWVSAINASGTRTYYADSVKGRFTISRDNSKNTLYLQMNSLRAEDTAVYYCARGKGNTHKPYGYVRYFDVWGQGTLVTVSS
VL: DIVLTQSPATLSLSPGERATLSCRASQSVSSSYLAWYQQKPGQAPRLLIYGASSRATGVPARFSGSGSGTDFTLTISSLEPEDFATYYCLQIYNMPITFGQGTKVEIK
For the molecule B1, the Kd with Aβ monomer was 34 µM; with Aβ protofibrils, 0.0008 µM.

By Kd is commonly meant the concentration at which binding is half-saturated. Read a high Kd as a looser complex.
